Reference: patent US8703907B2, “Controlled drug release from dendrimers” (Prolynx LLC, priority 2010, dated 2014)

Experiments:
[1] = β-eliminative cleavage of DNP-Lys carbamates (HPLC); format: physicochemical; settings: after 5 days at 37° C. and pH 7.4
Procedure: A series of model linker scaffolds having a range of functional groups as potential pKa modulators (substituted aromatics, ketones, nitriles, sulfones) were designed, prepared and linked via carbamate bonds to Ne-2,4-dinitrophenyl-L-lysine (Ne-DNP-Lys) for evaluation of release rates; DNP-Lys is water soluble and is a strong chromophore to permit HPLC-UV analysis. Rates of release at pH 7.4 and/or 8.3 were determined.
The DNP carbamates were prepared as follows. A suspension of N-DNP-L-Lys HCl (35 mg, 0.1 mmol) in 600 μL of water was treated successively with 1.0 N NaOH (200 μL) and 1.0 M NaHCO3. A 0.1 M solution of the N—HS carbonate in acetonitrile (1.0 mL) was added to the stirred mixture to give a clear yellow solution. After 1 hr, the mixture was diluted with 10 mL water and loaded onto a Bond-Elut™ C18 extraction column (1 gm). The column was washed successively with water, 1% CF3CO2H/water, water, and 50% MeOH/water. The product was eluted with MeOH, then evaporated to give the product as a yellow glass. Kinetic analyses were performed by HPLC (C18; linear MeOH/water+0.5% HOAc gradient) using a UV/vis monitor. The areas under the DNP and starting material peaks were integrated to determine extent of reaction.
The half-lives for cleavage span 2 hr to >10 days. […]

[2] = hydrolysis of carbamate in 50% human serum; format: in vitro ADME; settings: 1 week at 37° C.
Source text: The half-lives for cleavage span 2 hr to >10 days. […] In general, compared to C—H, a) electron withdrawing groups at R^1 increase the rate; b) alkyl groups at R^3 increase the rate; and c) aryl moieties at R^3 decrease the rate.

[3] = tested on: plasma proteases; settings: cited from earlier work
[4] = target: T1, GLP1 receptor (Rattus norvegicus, UniProt P32301); assay: GLP1 receptor agonism in membrane or cell-based assays after β-eliminative release; settings: native exendin released by mild base
T1 construct: in membrane or cell-based assays (e.g., RIN-m5f cells, ATCC); host or cells: RIN-m5f cells
T1 sequence (P32301 22-463): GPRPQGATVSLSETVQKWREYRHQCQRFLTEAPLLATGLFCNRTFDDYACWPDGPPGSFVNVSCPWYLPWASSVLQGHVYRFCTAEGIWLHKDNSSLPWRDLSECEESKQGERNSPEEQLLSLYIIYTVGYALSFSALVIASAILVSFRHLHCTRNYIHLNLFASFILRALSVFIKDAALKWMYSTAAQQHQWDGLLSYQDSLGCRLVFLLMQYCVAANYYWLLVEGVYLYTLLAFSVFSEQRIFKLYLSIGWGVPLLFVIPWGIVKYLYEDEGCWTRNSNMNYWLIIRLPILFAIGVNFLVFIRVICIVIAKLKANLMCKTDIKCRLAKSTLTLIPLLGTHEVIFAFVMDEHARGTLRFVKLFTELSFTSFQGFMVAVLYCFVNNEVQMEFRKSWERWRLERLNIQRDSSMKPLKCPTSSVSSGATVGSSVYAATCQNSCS
Procedure: The PEG and PEG-dendrimer conjugates are tested as agonists of the GLP1 receptor in membrane or cell-based assays (e.g., RIN-m5f cells, ATCC as described (Young, A., et al., (2000) WO00/66629) pages 74-75) before and after β-eliminative release of native exendin.

[5] = in vivo; cited from earlier work

Compound: O=C(N[C@@H](CCCCNc1ccc([N+](=O)[O-])cc1[N+](=O)[O-])C(=O)O)OCc1ccccc1 [O-benzyl-N—(Ne-2,4-DNP-Lys) carbamate]
- cleavage [1]: less than 0.25%
- hydrolysis in 50% human serum [2]: no detectable hydrolysis

Compound: Exendin-4: 39-amino acid peptide from the Gila monster, agonist of the GLP-1 receptor
- t1/2 against plasma proteases in vitro [3]: ~10 h
- activity as GLP1 agonists [4]: full activity
- half-life [5]: 2.5 h

Compound: GLP-1: glucagon-like peptide 1
- plasma lifetime [5]: ~5 min
